One assay relates to LLC-control-7 cells. Put plainly: In vitro ADC assay, LLC-control-7 cells. In kind it is cell-based. To be noted: does not express mouse GPC-1, 72 hours. As to the method: An mGPC1 expression vector (pcDNA3.1-mGPC1) and control vector (pcDNA3.1V5/His) were transfected using Lipofectamine® 2000 into LLC cell strain (mouse lung cancer cell strain). Cells subjected to gene transfer were selected by adding G418 to a medium, and the formed colony was picked up. The expression of mGPC1 was analyzed by FACS using anti-GPC1 antibody clone 01a033. LLC-mGPC1-16 cells were established as an mGPC1 stable expression strain, and LLC-control-7 was established as the control.
Preparation of a conjugate of mouse anti-glypican-1 mAb (01a033), mouse IgG2a (biolegend #400224) as a control, and mc-vc-PAB-MMAF was commissioned to MORADEC. An anticancer agent was conjugated to a cysteine residue via a cleavable linker. The DAR (drug-antibody ratio) was as follows. […]
RPMI1640+10% FBS+100 U/ml penicillin+100 μg/ml streptomycin was used as the medium. […] (3) After 72 hours of culturing, CellTiter-Glo™ Luminescence Cell Viability Assay reagent (Promega) was added and mixed at 100 μL/well. (4) Measurements were taken with a plate reader. […]
The IC50 values were calculated from the following equation (Hossain M M, Hosono-Fukao T, Tang R, Sugaya N, van Kuppevelt T H, Jenniskens G J, Kimata K, Rosen S D, Uchimura K (2010) Direct detection of HSulf-1 and HSulf-2 activities on extracellular heparan sulphate and their inhibition by PI-88. Glycobiology […]: 175-186.) […]

The next assay deals with DU145 cells. The assay is described as follows: ADC assay combining anti-GPC-1 antibody and MMAF binding secondary antibody in DU145 cells. In kind it is cell-based.
The next assay concerns ME180 cells. Put plainly: In vitro ADC assay, ME180 cells. In kind it is cell-based. To be noted: ME180, 144 hours. As to the method: (§1) Preparation of a conjugate of mouse anti-Glypican-1 mAb (01a033), mouse IgG2a (biolegend #400224) as a control, and mc-vc-PAB-MMAF was commissioned to MORADEC. An anticancer agent was conjugated to a cysteine residue via a cleavable linker. The DAR (drug-antibody ratio) was as follows. GPC1-CL-MMAF DAR=3.8, mouse IgG2a-CL-MMAF DAR=4.1.
(§2) (1) The cells were seeded on Thermo Fisher Scientific's 96-well white plate (model no.: 136101) (90 μl cell suspension). RPMI1640+10% FBS+100 U/ml penicillin+100 μg/ml streptomycin was used as the medium. The cells were seeded in 60 wells, and 100 μL of medium was added to 36 wells, and cultured in a 5% CO2 incubator at 37° C. (2) The next day, 10 μL of ADC was added to the cells (total amount: 100 μL). (3) After 144 hours of culture, a CellTiter-Glo™ Luminescence Cell Viability Assay reagent (Promega) was added and mixed at 100 μL/well. (4) Measurements were taken with a plate reader. (5) Analysis was conducted with GraphPad Prism 6.
(§3) The IC50 values were calculated from the following equation (Hossain M M, Hosono-Fukao T, Tang R, Sugaya N, van Kuppevelt T H, Jenniskens G J, Kimata K, Rosen S D, Uchimura K (2010) Direct detection of HSulf-1 and HSulf-2 activities on extracellular heparan sulphate and their inhibition by PI-88. Glycobiology 20(2): 175-186.)
(§4) IC50=10^(Log [A][B]×(50−C)/(D−C)+Log [B]) […]

The subject of the next assay is T3M4 cells. Put plainly: In vitro ADC assay, T3M4 cells. In kind it is cell-based, human. The following applies: T3M4, 144 hours. As to the method: as §1, §2, §3, §4
Another assay concerns pancreatic cancer PDX. The assay is described as follows: In vivo efficacy test on GPC1 ADC using pancreatic cancer PDX in NOG mice. Also on record: species or system mouse. The following applies: 1, 3, 10 mg/kg iv day 0, 4, 8, 12. An excerpt:
Pancreatic cancer PDX (Patient-derived tumor xenograft) refers to residual tissue from pathological analysis of cancer tissue upon pancreatic cancer surgery from a pancreatic cancer patient. This Example used a pancreatic cancer model created by subcutaneously grafting in superimmunodeficient mice such as NOG mice. While human tumor hardly survives in SCID mice after grafting, NOG mice have more severe immunodeficiency than SCID mouse, so that human tumor is more likely to survive. For this reason, a PDX model has an environment that is closer to human tumor than a mouse model to which a cell strain is grafted. Thus, information obtained with a PDX model is useful in evaluating drug efficacy.
FIG. 24 schematically depicts the test in this Example. Specifically, pancreatic cancer PDX was subcutaneously grafted into 6 week old female NOG mice. […] The tumor volume and body weight were measured on day 0, day 4, day 8, day 12, day 16, day 20, day 24, and day 28.

For the next assay, the system named is LK2 cells. The assay is described as follows: In vitro ADC assay, LK2 cells. It is filed as cell-based, human. To be noted: 144 hours; LK2 hardly express GPC1. As to the method: as §1, §2, §3, §4

B1: clone 01a033 (antibody)
heavy: QVQLKQSGPELVKPGASVKISCKASGYSFTGYYMHWVKQSPEKSLEWIGEINPSTGDTTYNQKFKAKATLTVDKSSSTAYMQLKSLTSEDSAVYYCAREKRDDGVFAYWGQGTLVTVSSAKTTAPSVYPLAPVCGDTTGSSVTLGCLVKGYFPEPVTLTWNSGSLSSGVHTFPAVLQSDLYTLSSSVTVTSSTWPSQSITCNVAHPASSTKVDKKIEPRGPTIKPCPPCKCPAPNLLGGPSVFIFPPKIKDVLMISLSPIVTCVVVDVSEDDPDVQISWFVNNVEVHTAQTQTHREDYNSTLRVVSALPIQHQDWMSGKEFKCKVNNKDLPAPIERTISKPKGSVRAPQVYVLPPPEEEMTKKQVTLTCMVTDFMPEDIYVEWTNNGKTELNYKNTEPVLDSDGSYFMYSKLRVEKKNWVERNSYSCSVVHEGLHNHHTTKSFSRTPGK
light: DIVMSQSPKSMSMSVGERVALSCKASENVGTYVSWYQQKPEQSPKLLIYGASNRYTGVPDRFTGSGSATDFTLTISSVQAEDLADYYCGQSYSYPLTFGAGTKLELKRADAAPTVSIFPPSSEQLTSGGASVVCFLNNFYPKDINVKWKIDGSERQNGVLNSWTDQDSKDSTYSMSSTLTLTKDEYERHNSYTCEATHKTSTSPIVKSFNRNEC
As for B1, the “effect of suppressing growth against LLC-control-7” value in the assay with LLC-control-7 cells is recorded as “low effect of suppressing growth”. Also, in the assay with DU145 cells (DU145 cells), the “activity compared to MIL-38” value was 37 fold. For the same molecule, the “growth suppressing effect against DU145 cells” value with DU145 cells (primary antibody plus MMAF secondary antibody 2 μg/ml, 3 days) was “high growth suppressing effect”. In the assay with DU145 cells (primary antibody plus MMAF secondary antibody, 3 days), the “EC50 values against DU145 cells” value was “excellent EC50 values”.

B2: GPC1 ADC (conjugate)
heavy: QVQLKQSGPELVKPGASVKISCKASGYSFTGYYMHWVKQSPEKSLEWIGEINPSTGDTTYNQKFKAKATLTVDKSSSTAYMQLKSLTSEDSAVYYCAREKRDDGVFAYWGQGTLVTVSSAKTTAPSVYPLAPVCGDTTGSSVTLGCLVKGYFPEPVTLTWNSGSLSSGVHTFPAVLQSDLYTLSSSVTVTSSTWPSQSITCNVAHPASSTKVDKKIEPRGPTIKPCPPCKCPAPNLLGGPSVFIFPPKIKDVLMISLSPIVTCVVVDVSEDDPDVQISWFVNNVEVHTAQTQTHREDYNSTLRVVSALPIQHQDWMSGKEFKCKVNNKDLPAPIERTISKPKGSVRAPQVYVLPPPEEEMTKKQVTLTCMVTDFMPEDIYVEWTNNGKTELNYKNTEPVLDSDGSYFMYSKLRVEKKNWVERNSYSCSVVHEGLHNHHTTKSFSRTPGK
light: DIVMSQSPKSMSMSVGERVALSCKASENVGTYVSWYQQKPEQSPKLLIYGASNRYTGVPDRFTGSGSATDFTLTISSVQAEDLADYYCGQSYSYPLTFGAGTKLELKRADAAPTVSIFPPSSEQLTSGGASVVCFLNNFYPKDINVKWKIDGSERQNGVLNSWTDQDSKDSTYSMSSTLTLTKDEYERHNSYTCEATHKTSTSPIVKSFNRNEC
For the molecule B2, the “effect of suppressing cell growth” value in the assay with ME180 cells and in the assay on T3M4 cells was “exhibits an effect of suppressing cell growth” throughout. The “antitumor effect (tumor volume, tumor weight day 28)” value with pancreatic cancer PDX was “exhibited an antitumor effect”. For the same molecule, the “antitumor effect against LK2 cells” value in the assay with LK2 cells was “hardly exhibited”.

Source of the values: patent US20200308299A1, “ANTI-GPC-1 ANTIBODY” (National University Corporation Kochi University, priority 2017, published 2020).
